Results published in publication PMC3858281, “Structural Characterisation of the Nuclear Import Receptor Importin Alpha in Complex with the Bipartite NLS of Prp20” (PLoS ONE, 2013).

Target: Mouse IMPαΔIBB (residues 70–529) (mouse, UniProt P52293 70-529)
Assay: crystal structure; complex of IMPαΔIBB and Prp20 NLS (GST tag removed by thrombin) in 20 mM Tris pH 7.8, 125 mM NaCl, 20 mg/mL; crystals in 500 mM sodium citrate pH 6–8, 10 mM DTT; 2.1 Å
Conditions: both partners purified

B1: Prp20 (S. cerevisiae RanGEF) NLS (residues 3–23) (peptide)
chain: KRTVATNGDASGAHRAKKMSK
notes: Prp20 (RanGEF), S. cerevisiae, bipartite NLS, residues 3-23; Only KR4 and RAKKMSK23 are in the final model; also called Prp20 NLS; Prp20NLS
binding result: binds
